Data: article PMC6595007, “Structural basis for cooperativity of human monoclonal antibodies to meningococcal factor H-binding protein” (Communications Biology, 2019)

Tests used:
Details in all cases: both partners purified
[1] = target: T1, factor H-binding protein variant 1 (fHbp var.1), recombinant, full length (Neisseria meningitidis, UniProt E6MV22); assay: SPR
T1 construct: source: E. coli BL21 (DE3) Star, pET-21b, purified (HisTrap HP, HiTrap SP HP)

[2] = target: T1, factor H-binding protein variant 1 …; assay: HDX-MS; 54 pmol antibody mixed with an equimolar amount of fHbp var.1, 30 min at room temperature; exposure 30 s to 30 min; difference counted when above 1 Da
[3] = target: T1, factor H-binding protein variant 1 …; assay: negative-stain transmission electron microscopy (single particle, random conical tilt); complexes formed at 1:1 molar ratio, 1 h at room temperature, purified on Superdex 200 Increase; diluted to 0.03 mg/ml in 20 mM Tris, 300 mM NaCl, pH 8; 1% uranyl acetate
human factor H [4] = target: T2, human factor H (human, UniProt P08603 19-1231); assay: SPR; fHbp var.1 captured on immobilised mAb 1A3, second mAb 1A3 injected (identical, no signal of the second mAb), then fH at 100 nM, 30 µl/min; HBS-P
T2 construct: also called fH; human fH

human factor H [5] = target: T2, human factor H; assay: SPR; quaternary complex: fHbp var.1 captured on immobilised mAb 1A12, second mAb 1A3 injected, then fH at 100 nM, 30 µl/min; HBS-P
human factor H [6] = target: T2, human factor H; assay: SPR; quaternary complex: fHbp var.1 captured on immobilised mAb 7B10, second mAb 1A12 injected, then fH at 100 nM, 30 µl/min; HBS-P
human factor H [7] = target: T2, human factor H; assay: SPR; ternary complex: fHbp var.1 captured on immobilised mAb 7B10 (CM-5), no second mAb; fH injected at 100 nM, 30 µl/min; HBS-P
human factor H [8] = target: T2, human factor H; assay: SPR; fHbp var.1 captured on immobilised mAb 7B10, second mAb 1A3 injected, then fH at 100 nM, 30 µl/min; HBS-P
human factor H [9] = target: T2, human factor H; assay: SPR; ternary complex: fHbp var.1 captured on immobilised mAb 1A3 (CM-5), no second mAb; fH injected at 100 nM, 30 µl/min; HBS-P
human factor H [10] = target: T2, human factor H; assay: SPR; quaternary complex: fHbp var.1 captured on immobilised mAb 1A3, second mAb 2C1 injected, then fH at 100 nM, 30 µl/min; HBS-P
human factor H [11] = target: T2, human factor H; assay: SPR; fHbp var.1 captured on immobilised mAb 1A12, second mAb 2C1 injected, then fH at 100 nM, 30 µl/min; HBS-P
human factor H [12] = target: T2, human factor H; assay: SPR; ternary complex: fHbp var.1 captured on immobilised mAb 1A12 (CM-5), no second mAb; fH injected at 100 nM, 30 µl/min; HBS-P
human factor H [13] = target: T2, human factor H; assay: SPR; quaternary complex: fHbp var.1 captured on immobilised mAb 1A3, second mAb 1A12 injected, then fH at 100 nM, 30 µl/min; HBS-P
human factor H [14] = target: T2, human factor H; assay: SPR; fHbp var.1 captured on immobilised mAb 1A12, second mAb 1A12 injected (identical, no signal of the second mAb), then fH at 100 nM, 30 µl/min; HBS-P
human factor H [15] = target: T2, human factor H; assay: SPR; quaternary complex: fHbp var.1 captured on immobilised mAb 7B10, second mAb 2C1 injected, then fH at 100 nM, 30 µl/min; HBS-P

T2 sequence (P08603 19-1231): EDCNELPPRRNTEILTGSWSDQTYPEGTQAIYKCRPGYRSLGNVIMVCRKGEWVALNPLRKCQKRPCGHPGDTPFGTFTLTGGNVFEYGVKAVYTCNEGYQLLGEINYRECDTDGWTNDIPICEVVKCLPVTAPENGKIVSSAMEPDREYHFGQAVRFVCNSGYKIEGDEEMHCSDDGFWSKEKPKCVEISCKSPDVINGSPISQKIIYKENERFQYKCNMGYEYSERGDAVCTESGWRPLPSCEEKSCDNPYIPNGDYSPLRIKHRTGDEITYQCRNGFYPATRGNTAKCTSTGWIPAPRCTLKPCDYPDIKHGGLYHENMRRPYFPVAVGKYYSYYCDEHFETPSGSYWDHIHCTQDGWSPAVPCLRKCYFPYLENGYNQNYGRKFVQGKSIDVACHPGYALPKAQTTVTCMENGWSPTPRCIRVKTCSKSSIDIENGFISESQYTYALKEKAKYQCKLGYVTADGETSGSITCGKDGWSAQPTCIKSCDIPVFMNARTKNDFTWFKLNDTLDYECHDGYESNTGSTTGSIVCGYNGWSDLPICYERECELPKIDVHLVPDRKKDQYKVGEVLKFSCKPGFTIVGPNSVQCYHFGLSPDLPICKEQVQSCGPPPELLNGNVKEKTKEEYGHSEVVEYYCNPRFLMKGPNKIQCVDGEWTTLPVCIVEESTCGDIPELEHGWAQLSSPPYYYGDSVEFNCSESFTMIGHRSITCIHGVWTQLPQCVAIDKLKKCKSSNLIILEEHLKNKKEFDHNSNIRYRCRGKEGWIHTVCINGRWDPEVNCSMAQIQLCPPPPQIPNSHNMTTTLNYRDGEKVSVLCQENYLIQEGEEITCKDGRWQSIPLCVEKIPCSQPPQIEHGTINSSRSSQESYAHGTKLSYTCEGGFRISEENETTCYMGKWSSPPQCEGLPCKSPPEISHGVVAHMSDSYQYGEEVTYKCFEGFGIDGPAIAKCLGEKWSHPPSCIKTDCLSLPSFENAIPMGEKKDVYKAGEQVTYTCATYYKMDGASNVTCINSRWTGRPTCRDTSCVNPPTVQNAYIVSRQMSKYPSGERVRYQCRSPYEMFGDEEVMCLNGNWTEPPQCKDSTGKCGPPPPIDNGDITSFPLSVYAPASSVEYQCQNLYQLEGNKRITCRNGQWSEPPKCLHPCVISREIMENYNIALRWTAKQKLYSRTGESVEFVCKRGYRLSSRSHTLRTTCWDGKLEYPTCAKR

B1: human monoclonal antibody 1A12 (IgG1) against fHbp (antibody, V domains shown)
VH: EVQLVQSGAELKKPGESLKISCKASGYTFTNYWVVWVRQMPGEGLEWMGSIHPRDSDARYSLSFEGRVTFSVDKSTTTAYLQWSSLKVSDSAIYYCARLSQVSGWSPWVGPWGQGTLVTVSS
VL: DIVMTQSPSSLSASVGDRVTITCRASQSISVSLNWYQQKPGKAPKVLIYAASRLQSGIPSRFSGSGSGSHFTLTISSLQPEDFATYYCQETYSDLMYTFGQGTKVEIK
notes: also called mAb1A12; mAb 1A12; source: Expi293 cells, transiently transfected, purified (protein G beads)
B1: binds [1].

B2: human monoclonal antibody 7B10 (IgG1) against fHbp (antibody, V domains shown)
VH: QVQLVESGGGLVQPGGSLRLSCVTSGFTFRSYAMTWVRQAPGKGLEWVSSISHSGGSTKYADSVKGRLTISRDDSMDTLYLQMNSLRAEDTAIYYCAKDQISYPAASPLDYWGRGTLVTVSS
VL: EIVLTQSPGTLSLSPGERATLSCRASQSFSSFSLAWYQQKPGQAPRLLIYAPSNRATGIADRFSGSGSGTDFTLTISRLEPEDFAVYYCQQYGSSPITFGQGTRLEIK
notes: also called mAb7B10; mAb 7B10; source: Expi293 cells, transiently transfected, purified (protein G beads)
B2: binds [2].

B3: antigen-binding fragment of human mAb 7B10 (Fab, V domains shown)
VH: QVQLVESGGGLVQPGGSLRLSCVTSGFTFRSYAMTWVRQAPGKGLEWVSSISHSGGSTKYADSVKGRLTISRDDSMDTLYLQMNSLRAEDTAIYYCAKDQISYPAASPLDYWGRGTLVTVSS
VL: EIVLTQSPGTLSLSPGERATLSCRASQSFSSFSLAWYQQKPGQAPRLLIYAPSNRATGIADRFSGSGSGTDFTLTISRLEPEDFAVYYCQQYGSSPITFGQGTRLEIK
notes: also called fAb7B10; huFab 7B10; source: E. coli Rosetta 2, purified (His Gravity Trap, HiTrap SP HP)
B3: binds [3].

B4: antigen-binding fragment of human mAb 2C1 (Fab, V domains shown)
VH: QVQLVESGGGVVQPGRSLRLSCAASGFTFSSFAMHWVRQAPGKGLEWVAVTSFDGKDEYYAASVKGRFSVSRDISKNTVYLQMNSLKTEDTAVYYCAKDRGDWDFDYWGQGTLVTVSS
VL: SYELTQPPSVSVSPGQTATITCSGEKLGDKYTSWYQQKPGQSPVLIIYQDTKRPSGIPARFSGSNSGNTATLTISGTQAVDEADYYCQAWDSYTVPFGGGTKLTVL
notes: also called fAb2C1; huFab 2C1; source: E. coli Rosetta 2, purified (His Gravity Trap, HiTrap SP HP)
B4: binds [3].

B5: human monoclonal antibody 2C1 (IgG1) against fHbp (antibody, V domains shown)
VH: QVQLVESGGGVVQPGRSLRLSCAASGFTFSSFAMHWVRQAPGKGLEWVAVTSFDGKDEYYAASVKGRFSVSRDISKNTVYLQMNSLKTEDTAVYYCAKDRGDWDFDYWGQGTLVTVSS
VL: SYELTQPPSVSVSPGQTATITCSGEKLGDKYTSWYQQKPGQSPVLIIYQDTKRPSGIPARFSGSNSGNTATLTISGTQAVDEADYYCQAWDSYTVPFGGGTKLTVL
notes: also called mAb2C1; mAb 2C1; source: Expi293 cells, transiently transfected, purified (protein G beads)
B5: binds [2].

B6: factor H-binding protein variant 1 (fHbp var.1), recombinant, full length (natural protein)
chain: CSSGGGGVAADIGAGLADALTAPLDHKDKGLQSLTLDQSVRKNEKLKLAAQGAEKTYGNGDSLNTGKLKNDKVSRFDFIRQIEVDGQLITLESGEFQVYKQSHSALTAFQTEQIQDSEHSGKMVAKRQFRIGDIAGEHTSFDKLPEGGRATYRGTAFGSDDAGGKLTYTIDFAAKQGNGKIEHLKSPELNVDLAAADIKPDGKRHAVISGSVLYNQAEKGSYSLGIFGGKAQEVAGSAEVKTVNGIRHIGLAAKQ
notes: source: E. coli BL21 (DE3) Star, pET-21b, purified (HisTrap HP, HiTrap SP HP)
For B6, the koff (human factor H [4]) was 0.00074 s⁻¹, the koff (human factor H [5]) was 0.00068 s⁻¹ and the koff (human factor H [6]) was 0.00011 s⁻¹. For the same binder, the koff (human factor H [7]) was 0.00032 s⁻¹, the koff (human factor H [8]) was 0.00032 s⁻¹ and the koff (human factor H [9]) was 0.00074 s⁻¹. It also gave a koff (human factor H [10]) of 0.00063 s⁻¹, a koff (human factor H [11]) of 0.043 s⁻¹ and a koff (human factor H [12]) of 0.0016 s⁻¹. It also gave a koff (human factor H [13]) of 0.00035 s⁻¹, a koff (human factor H [14]) of 0.0018 s⁻¹ and a koff (human factor H [15]) of 0.00029 s⁻¹.

B7: human monoclonal antibody 1A3 (IgG1) against fHbp (antibody, V domains shown)
VH: EVQLVESGGGLVQPGGSLRLSCAASGFTFSSYAMSWVRQAPGKGLEWVSAISGSGGSSHYTDSVKGRFTISRDNSKNTLWLQMNSLRAEDTAIYYCAKTSGSYYYHYEIDVWGQGTTVTVSS
VL: EIVLTQSPGTLSLSPGERATLSCRASQSVSSSYLAWYQQKPGQAPRLLIYGTSNRATGIPDRFSGSGSGTDFTLTVSRLEPEDFAVYYCQQYGSSPCSFGQGTKLELK
notes: also called mAb1A3; mAb 1A3; source: Expi293 cells, transiently transfected, purified (protein G beads)
B7: binds [1].
